Experimental data taken from PMC10397247.
One block for each binder: values may come before it.

Tests used:
4H3855-bA = molecular target: T1, 4H3855-bA; assay: two-hybrid library CCNG1;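 note: natural log of median RNA to DNA barcode read ratio; higher means stronger binding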
T1 chain: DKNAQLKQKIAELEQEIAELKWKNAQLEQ

4H4001-bA = molecular target: T2, 4H4001-bA; assay: two-hybrid library CCNG1;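 note: natural log of median RNA to DNA barcode read ratio; higher means stronger binding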
T2 chain: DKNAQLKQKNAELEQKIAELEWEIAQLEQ

4H454-bA = molecular target: T3, 4H454-bA; assay: two-hybrid library CCNG1;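 note: natural log of median RNA to DNA barcode read ratio; higher means stronger binding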
T3 chain: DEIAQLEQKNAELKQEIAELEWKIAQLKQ

4H568-bA = molecular target: T4, 4H568-bA; assay: two-hybrid library CCNG1;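 note: natural log of median RNA to DNA barcode read ratio; higher means stronger binding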
T4 chain: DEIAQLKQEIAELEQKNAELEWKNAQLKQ

4H607-bA = molecular target: T5, 4H607-bA; assay: two-hybrid library CCNG1;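 note: natural log of median RNA to DNA barcode read ratio; higher means stronger binding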
T5 chain: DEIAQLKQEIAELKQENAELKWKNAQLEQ

4H687-bA = molecular target: T6, 4H687-bA; assay: two-hybrid library CCNG1;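 note: natural log of median RNA to DNA barcode read ratio; higher means stronger binding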
T6 chain: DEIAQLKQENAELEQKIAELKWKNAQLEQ

4H717-bA = molecular target: T7, 4H717-bA; assay: two-hybrid library CCNG1
T7 chain: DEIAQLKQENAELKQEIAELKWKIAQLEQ

4H72-bA = molecular target: T8, 4H72-bA; assay: two-hybrid library CCNG1
T8 chain: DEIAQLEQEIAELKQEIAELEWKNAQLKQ

4H754-bA = molecular target: T9, 4H754-bA; assay: two-hybrid library CCNG1; conditions: mean of both orientations
T9 chain: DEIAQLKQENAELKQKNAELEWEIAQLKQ

4H797-bA = molecular target: T10, 4H797-bA; assay: two-hybrid library CCNG1
T10 chain: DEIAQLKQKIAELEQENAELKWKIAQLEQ

4H883-bA = molecular target: T11, 4H883-bA; assay: two-hybrid library CCNG1
T11 chain: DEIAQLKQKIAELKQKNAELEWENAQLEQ

4H908-bA = molecular target: T12, 4H908-bA; assay: two-hybrid library CCNG1
T12 chain: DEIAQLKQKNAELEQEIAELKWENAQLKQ

4H918-bA = molecular target: T13, 4H918-bA; assay: two-hybrid library CCNG1
T13 chain: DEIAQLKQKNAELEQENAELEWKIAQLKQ

4H953-bA = molecular target: T14, 4H953-bA; assay: two-hybrid library CCNG1
T14 chain: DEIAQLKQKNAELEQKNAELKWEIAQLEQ

4H967-bA = molecular target: T15, 4H967-bA; assay: two-hybrid library CCNG1
T15 chain: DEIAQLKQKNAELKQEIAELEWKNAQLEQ

APC5383-AA = molecular target: T16, APC5383-AA; assay: two-hybrid library CCmax
T16 chain: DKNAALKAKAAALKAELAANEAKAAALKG

APC6108-AA = molecular target: T17, APC6108-AA; assay: two-hybrid library CCmax; conditions: mean of both orientations
T17 chain: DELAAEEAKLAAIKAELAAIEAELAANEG

APC7099-AA = molecular target: T18, APC7099-AA; assay: two-hybrid library CCmax; conditions: mean of both orientations
T18 chain: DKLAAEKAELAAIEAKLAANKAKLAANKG

APC8191-AA = molecular target: T19, APC8191-AA; assay: two-hybrid library CCmax; conditions: mean of both orientations
T19 chain: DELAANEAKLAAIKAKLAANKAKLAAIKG

APC8910-AA = molecular target: T20, APC8910-AA; assay: two-hybrid library CCmax; conditions: mean of both orientations
T20 chain: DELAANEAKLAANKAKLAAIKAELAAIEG

APC9096-AA = molecular target: T21, APC9096-AA; assay: two-hybrid library CCmax; conditions: mean of both orientations
T21 chain: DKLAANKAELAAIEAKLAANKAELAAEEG

APC9319-AA = molecular target: T22, APC9319-AA; assay: two-hybrid library CCmax; conditions: mean of both orientations
T22 chain: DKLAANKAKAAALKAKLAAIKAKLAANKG

interaction score (4H3855-bA): 0.372
interaction score (4H4001-bA): 0.153
interaction score (4H454-bA): -0.709
interaction score (4H568-bA): -0.231
interaction score (4H607-bA): -0.96
interaction score (4H687-bA): -0.551
interaction score (4H717-bA): -0.336
interaction score (4H72-bA): 0.932
interaction score (4H754-bA): -1.21
interaction score (4H797-bA): -0.875
interaction score (4H883-bA): -1.04
interaction score (4H908-bA): -0.51
interaction score (4H918-bA): -1.43
interaction score (4H953-bA): -1.69
interaction score (4H967-bA): -0.636
B1: 4H3855-bA (peptide)
chain: DKNAQLKQKIAELEQEIAELKWKNAQLEQ

interaction score (APC5383-AA): -1.83
interaction score (APC6108-AA): -1.32
interaction score (APC7099-AA): -1.61
interaction score (APC8191-AA): -2.31
interaction score (APC8910-AA): -1.6
interaction score (APC9096-AA): -1.73
interaction score (APC9319-AA): -2.03
B2: APC5383-AA (peptide)
chain: DKNAALKAKAAALKAELAANEAKAAALKG
